From the supplement of paper PMC5998384 come the findings set out here.

For series [1], the system named is HeLa Kyoto. Description: solubility change mitosis vs G1/S (difference of NP-40 vs SDS log2 ratios) (log2 ratio difference); higher = more soluble in mitosis.
Series [2] relates to HeLa Kyoto. Description: thermal stability score vs G1/S (z-score of summed log2 fold changes over temperatures); higher = more thermally stable than in G1/S.
Series [3] deals with HeLa Kyoto. Description: melting temperature (median over replicates), in situ; higher = more thermally stable.
In series [4] the test system is HeLa Kyoto. Description: solubility in G1/S (NP-40 vs SDS abundance) (log2 ratio); higher = more soluble. As to conditions: cell cycle stage: G1/S.
Setting [5] is: cell cycle stage: early G1 (4.5 h after nocodazole release).
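Throughout, for melting temperature (median over replicates), in situ: HeLa Kyoto cells synchronized by double thymidine or nocodazole block, proteins quantified by TMT10plex mass spectrometry, three independent biological replicates.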
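Throughout, for solubility change mitosis vs G1/S (difference of NP-40 vs SDS log2 ratios): synchronized HeLa Kyoto cells (double thymidine block for G1/S, nocodazole release for mitosis), protein amounts in NP-40 versus SDS lysates quantified by mass spectrometry, three biological replicates.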
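Throughout, for solubility in G1/S (NP-40 vs SDS abundance): HeLa Kyoto cells arrested at G1/S by double thymidine block, proteins quantified by TMT10plex mass spectrometry in mild NP-40 versus SDS extracts, three biological replicates.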
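Throughout, for thermal stability score vs G1/S (z-score of summed log2 fold changes over temperatures): synchronized HeLa Kyoto cells, proteins quantified by TMT10plex mass spectrometry, three biological replicates, mitosis taken 0.5 h after nocodazole release, G1/S directly after double thymidine block.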

In the case of “MDSGSSSSDSAPDCWDQVDMESPGSAPSGDGVSSAVAEAQREPLSSAFSRKLNVNAKPFVPNVHAAEFVPSFLRGPTQPPTLPAGSGSNDETCTGAGYPQGKRMGRGAPVEPSREEPLVSLEGSNSAVTMELSEPVVENGEVEMALEESWEHSKEVSEAEPGGGSSGDSGPPEESGQEMMEEKEEIRKSKSVIVPSGAPKKEHVNVVFIGHVDAGKSTIGGQIMFLTGMVDKRTLEKYEREAKEKNRETWYLSWALDTNQEERDKGKTVEVGRAYFETERKHFTILDAPGHKSFVPNMIGGASQADLAVLVISARKGEFETGFEKGGQTREHAMLAKTAGVKHLIVLINKMDDPTVNWSIERYEECKEKLVPFLKKVGFSPKKDIHFMPCSGLTGANIKEQSDFCPWYTGLPFIPYLDNLPNFNRSIDGPIRLPIVDKYKDMGTVVLGKLESGSIFKGQQLVMMPNKHNVEVLGILSDDTETDFVAPGENLKIRLKGIEEEEILPGFILCDPSNLCHSGRTFDVQIVIIEHKSIICPGYNAVLHIHTCIEEVEITALISLVDKKSGEKSKTRPRFVKQDQVCIARLRTAGTICLETFKDFPQMGRFTLRDEGKTIAIGKVLKLVPEKD [GSPT2]”, the “solubility change mitosis (log2)” value in the series on HeLa Kyoto [1] was -0.124. Further, the thermal stability score in the series with HeLa Kyoto [2] (setting [5]) is -1.05; in the series on HeLa Kyoto [2] (cell cycle stage: mitosis), -1.43. For the same substance, the melting temperature in the series with HeLa Kyoto [3] (cell cycle stage: mitosis) worked out at 53.5 °C. The “solubility in G1/S (log2)” value in the series with HeLa Kyoto [4] came out at 0.153.

For the substance “MAAAALRRFWSRRRAEAGDAVVAKPGVWARLGSWARALLRDYAEACRDASAEARARPGRAAVYVGLLGGAAACFTLAPSEGAFEEALLEASGTLLLLAPATRNRESEAFVQRLLWLRGRGRLRYVNLGLCSLVYEAPFDAQASLYQARCRYLQPRWTDFPGRVLDVGFVGRWWVLGAWMRDCDINDDEFLHLPAHLRVVGPQQLHSETNERLFDEKYKPVVLTDDQVDQALWEEQVLQKEKKDRLALSQAHSLVQAEAPR [C19ORF52]”, in the series with HeLa Kyoto [1], the “solubility change mitosis (log2)” value was -0.13. For the same substance, the thermal stability score came out at 0.683 with HeLa Kyoto [2] (setting [5]) and 0.243 in the series on HeLa Kyoto [2] (cell cycle stage: mitosis). In addition, the figures for the melting temperature with HeLa Kyoto [3] (cell cycle stage: G1/S) and in the series with HeLa Kyoto [3] (cell cycle stage: mitosis) were 53.5 °C and 53.8 °C, respectively. The “solubility in G1/S (log2)” value with HeLa Kyoto [4] is -0.131.

With “MLKPQPLQQPSQPQQPPPTQQAVARRPPGGTSPPNGGLPGPLATSAAPPGPPAAASPCLGPVAAAGSGLRRGAEGILAPQPPPPQQHQERPGAAAIGSARGQSTGKGPPQSPVFEGVYNNSRMLHFLTAVVGSTCDVKVKNGTTYEGIFKTLSSKFELAVDAVHRKASEPAGGPRREDIVDTMVFKPSDVMLVHFRNVDFNYATKDKFTDSAIAMNSKVNGEHKEKVLQRWEGGDSNSDDYDLESDMSNGWDPNEMFKFNEENYGVKTTYDSSLSSYTVPLEKDNSEEFRQRELRAAQLAREIESSPQYRLRIAMENDDGRTEEEKHSAVQRQGSGRESPSLASREGKYIPLPQRVREGPRGGVRCSSSRGGRPGLSSLPPRGPHHLDNSSPGPGSEARGINGGPSRMSPKAQRPLRGAKTLSSPSNRPSGETSVPPPPAVGRMYPPRSPKSAAPAPISASCPEPPIGSAVPTSSASIPVTSSVSDPGVGSISPASPKISLAPTDVKELSTKEPGRTLEPQELARIAGKVPGLQNEQKRFQLEELRKFGAQFKLQPSSSPENSLDPFPPRILKEEPKGKEKEVDGLLTSEPMGSPVSSKTESVSDKEDKPPLAPSGGTEGPEQPPPPCPSQTGSPPVGLIKGEDKDEGPVAEQVKKSTLNPNAKEFNPTKPLLSVNKSTSTPTSPGPRTHSTPSIPVLTAGQSGLYSPQYISYIPQIHMGPAVQAPQMYPYPVSNSVPGQQGKYRGAKGSLPPQRSDQHQPASAPPMMQAAAAAGPPLVAATPYSSYIPYNPQQFPGQPAMMQPMAHYPSQPVFAPMLQSNPRMLTSGSHPQAIVSSSTPQYPSAEQPTPQALYATVHQSYPHHATQLHAHQPQPATTPTGSQPQSQHAAPSPVQHQAGQAPHLGSGQPQQNLYHPGALTGTPPSLPPGPSAQSPQSSFPQPAAVYAIHHQQLPHGFTNMAHVTQAHVQTGITAAPPPHPGAPHPPQVMLLHPPQSHGGPPQGAVPQSGVPALSASTPSPYPYIGHPQGEQPGQAPGFPGGADDRIREFSLAGGIWHGRAEGLQVGQDARVLGGE [ATXN2L]”, the “solubility change mitosis (log2)” value with HeLa Kyoto [1] came out at 0.367. For the same substance, the thermal stability score in the series with HeLa Kyoto [2] (setting [5]) is -0.388; in the series with HeLa Kyoto [2] (cell cycle stage: mitosis), -1.51. The melting temperature came out at 52.3 °C in the series on HeLa Kyoto [3] (cell cycle stage: G1/S) and 53.2 °C in the series with HeLa Kyoto [3] (cell cycle stage: mitosis). Also, the “solubility in G1/S (log2)” value in the series with HeLa Kyoto [4] was -0.0191.

For the substance “MSLGRLCRLLKPALLCGALAAPGLAGTMCASRDDWRCARSMHEFSAKDIDGHMVNLDKYRGFVCIVTNVASQUGKTEVNYTQLVDLHARYAECGLRILAFPCNQFGKQEPGSNEEIKEFAAGYNVKFDMFSKICVNGDDAHPLWKWMKIQPKGKGILGNAIKWNFTKFLIDKNGCVVKRYGPMEEPLVIEKDLPHYF [GPX4]”, the “solubility change mitosis (log2)” value with HeLa Kyoto [1] was -0.141. In addition, the thermal stability score with HeLa Kyoto [2] (setting [5]) is -2.51; in the series with HeLa Kyoto [2] (cell cycle stage: mitosis), -2.1. The melting temperature in the series with HeLa Kyoto [3] (cell cycle stage: G1/S) and in the series on HeLa Kyoto [3] (cell cycle stage: mitosis) was 56.3 °C each time. For the same substance, the “solubility in G1/S (log2)” value in the series on HeLa Kyoto [4] is 0.136.

In the case of JMJD1C, the “solubility change mitosis (log2)” value in the series on HeLa Kyoto [1] was -0.0573. Also, the thermal stability score in the series with HeLa Kyoto [2] (setting [5]) was 0.98; with HeLa Kyoto [2] (cell cycle stage: mitosis) it was 0.156. Also, the melting temperature came out at 50.2 °C in the series on HeLa Kyoto [3] (cell cycle stage: G1/S) and 50.7 °C in the series with HeLa Kyoto [3] (cell cycle stage: mitosis). The “solubility in G1/S (log2)” value with HeLa Kyoto [4] was -0.105.
